For this assay, the target named is protein A found on S. aureus (Staphylococcus aureus) (UniProt P02976). The assay can be described thus: FACS, Alexa-488 labeled antibodies at 0.08-50 ug/mL on MRSA isolated from infected mouse kidneys; low level binding attributed by the filing to protein A. In general terms: In flow cytometry, cells or beads pass a laser one at a time.
Chain of protein A found on S. aureus (Staphylococcus aureus) (P02976 37-485): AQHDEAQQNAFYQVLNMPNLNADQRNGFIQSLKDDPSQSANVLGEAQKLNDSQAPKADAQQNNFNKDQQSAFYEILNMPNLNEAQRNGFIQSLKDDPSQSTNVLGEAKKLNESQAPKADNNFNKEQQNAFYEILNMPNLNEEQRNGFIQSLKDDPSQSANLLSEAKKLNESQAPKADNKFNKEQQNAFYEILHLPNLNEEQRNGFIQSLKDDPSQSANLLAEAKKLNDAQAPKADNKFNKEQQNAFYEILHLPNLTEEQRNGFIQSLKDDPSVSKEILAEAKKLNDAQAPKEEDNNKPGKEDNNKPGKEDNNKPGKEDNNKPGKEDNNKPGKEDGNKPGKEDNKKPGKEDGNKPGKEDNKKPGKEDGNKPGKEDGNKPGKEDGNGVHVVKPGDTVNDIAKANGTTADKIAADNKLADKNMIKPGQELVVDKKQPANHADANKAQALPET

“gD antibody (negative control human IgG1 that does not recognize S. aureus)” had a fold lower binding than the S4497 antibody (fold lower than S4497 antibody) of 30.
